Legend:
[1] = target: T1, human NaPi2b on NaPi2b-positive cell lines OVCAR-3 and HCC-78 (human, UniProt O95436 1-690); experiment: flow cytometry on HCC-78 cells, one-site fit
T1 construct: Endogenous protein
T1 sequence: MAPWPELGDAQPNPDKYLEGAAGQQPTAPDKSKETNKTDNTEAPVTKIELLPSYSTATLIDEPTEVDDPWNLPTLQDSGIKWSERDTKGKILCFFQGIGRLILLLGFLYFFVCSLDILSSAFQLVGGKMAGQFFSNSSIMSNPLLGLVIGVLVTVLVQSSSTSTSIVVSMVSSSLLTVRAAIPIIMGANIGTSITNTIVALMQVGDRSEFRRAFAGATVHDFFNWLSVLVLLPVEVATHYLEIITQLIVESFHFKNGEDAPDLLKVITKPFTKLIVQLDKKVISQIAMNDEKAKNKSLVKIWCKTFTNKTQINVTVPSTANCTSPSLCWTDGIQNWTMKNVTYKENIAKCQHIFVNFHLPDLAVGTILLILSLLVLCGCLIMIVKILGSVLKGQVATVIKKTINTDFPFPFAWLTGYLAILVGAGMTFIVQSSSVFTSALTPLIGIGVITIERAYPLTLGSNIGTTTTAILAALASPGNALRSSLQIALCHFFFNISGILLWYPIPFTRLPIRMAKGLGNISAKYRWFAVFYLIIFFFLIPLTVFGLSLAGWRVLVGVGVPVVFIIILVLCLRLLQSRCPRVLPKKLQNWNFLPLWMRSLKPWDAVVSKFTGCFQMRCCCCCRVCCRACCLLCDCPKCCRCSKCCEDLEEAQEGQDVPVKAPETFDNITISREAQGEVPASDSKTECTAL

[2] = target: T1, human NaPi2b on NaPi2b-positive cell …; experiment: flow cytometry on OVCAR-3 cells, one-site fit
[3] = target: T2, purified recombinant human Napi2b antigen consisting of Napi2b-extracellular-loop2 expressed as … (human, UniProt O95436 234-362, limits assumed); experiment: ELISA, coated Napi2b-extracellular-loop2-Fc-6-His, apparent KD from one-site fit
T2 construct: Expressed in Expi-HEK293 cells; also called immobilized human NaPi2B; not shown: Fc part; 6-His tag
T2 sequence: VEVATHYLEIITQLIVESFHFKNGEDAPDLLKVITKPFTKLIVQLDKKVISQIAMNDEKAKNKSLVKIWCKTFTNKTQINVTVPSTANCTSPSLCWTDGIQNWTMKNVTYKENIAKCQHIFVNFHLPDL

[4] = target: T3, recombinant hexameric C1q complement protein (human) (human, UniProt P02745 23-245; P02746 28-253; P02747 29-245); experiment: HTRF Human C1q Binding Kit (Cisbio), HTRF ratio at 70 nM antibody with the diluent-only background subtracted
T3 construct: also called complement factor C1q
T3 sequence (P02745 23-245 limits assumed, chain 1 of 3): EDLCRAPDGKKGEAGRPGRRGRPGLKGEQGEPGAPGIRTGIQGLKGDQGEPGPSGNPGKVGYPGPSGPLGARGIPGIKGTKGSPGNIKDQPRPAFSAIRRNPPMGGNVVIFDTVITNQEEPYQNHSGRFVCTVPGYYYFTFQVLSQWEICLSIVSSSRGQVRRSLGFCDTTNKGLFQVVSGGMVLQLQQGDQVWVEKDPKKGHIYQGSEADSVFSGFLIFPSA
T3 sequence (P02746 28-253 limits assumed, chain 2 of 3): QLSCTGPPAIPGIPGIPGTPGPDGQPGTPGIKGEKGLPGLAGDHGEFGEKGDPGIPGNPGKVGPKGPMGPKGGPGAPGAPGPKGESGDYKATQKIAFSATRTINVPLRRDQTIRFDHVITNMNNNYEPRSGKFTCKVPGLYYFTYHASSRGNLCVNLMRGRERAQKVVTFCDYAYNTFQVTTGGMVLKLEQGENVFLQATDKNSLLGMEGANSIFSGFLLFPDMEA
T3 sequence (P02747 29-245 limits assumed, chain 3 of 3): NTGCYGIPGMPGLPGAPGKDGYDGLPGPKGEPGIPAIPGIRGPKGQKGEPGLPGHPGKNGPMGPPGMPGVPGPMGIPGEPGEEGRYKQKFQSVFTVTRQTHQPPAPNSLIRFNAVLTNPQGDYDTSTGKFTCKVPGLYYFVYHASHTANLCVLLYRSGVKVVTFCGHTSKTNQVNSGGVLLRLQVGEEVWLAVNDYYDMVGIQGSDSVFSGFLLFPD

[5] = target: T4, recombinant human FcγRI (FcγR-SmBiT, Lumit assay) (human, UniProt P12314 16-292); experiment: Lumit FcγRI Binding Immunoassay (Promega), competition with Tracer-LgBiT for FcγRI-SmBiT, falling luminescence means binding, n=1
T4 construct: Kit reagent (Promega); also called FcγRI (CD64); not shown: SmBiT label of the kit
T4 sequence (P12314 16-292): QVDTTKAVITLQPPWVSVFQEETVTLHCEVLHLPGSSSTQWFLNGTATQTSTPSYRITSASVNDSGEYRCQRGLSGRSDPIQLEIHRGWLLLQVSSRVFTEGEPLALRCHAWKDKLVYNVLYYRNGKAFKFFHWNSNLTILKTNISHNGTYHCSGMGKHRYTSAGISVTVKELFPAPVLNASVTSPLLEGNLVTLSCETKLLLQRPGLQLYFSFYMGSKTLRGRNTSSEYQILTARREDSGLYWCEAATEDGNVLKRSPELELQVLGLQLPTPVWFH

[6] = target: T5, human Napi2c-mCherry on HEK293 cells (human, UniProt Q8N130 1-599); experiment: flow cytometry on HEK293 cells expressing human Napi2c-mCherry (panel Napi2c-HEK293), MFI ratio to the non-specific binding control
T5 construct: whole, on cells; also called Napi2c (SLC34A3); not shown: mCherry fusion
T5 sequence (looked up): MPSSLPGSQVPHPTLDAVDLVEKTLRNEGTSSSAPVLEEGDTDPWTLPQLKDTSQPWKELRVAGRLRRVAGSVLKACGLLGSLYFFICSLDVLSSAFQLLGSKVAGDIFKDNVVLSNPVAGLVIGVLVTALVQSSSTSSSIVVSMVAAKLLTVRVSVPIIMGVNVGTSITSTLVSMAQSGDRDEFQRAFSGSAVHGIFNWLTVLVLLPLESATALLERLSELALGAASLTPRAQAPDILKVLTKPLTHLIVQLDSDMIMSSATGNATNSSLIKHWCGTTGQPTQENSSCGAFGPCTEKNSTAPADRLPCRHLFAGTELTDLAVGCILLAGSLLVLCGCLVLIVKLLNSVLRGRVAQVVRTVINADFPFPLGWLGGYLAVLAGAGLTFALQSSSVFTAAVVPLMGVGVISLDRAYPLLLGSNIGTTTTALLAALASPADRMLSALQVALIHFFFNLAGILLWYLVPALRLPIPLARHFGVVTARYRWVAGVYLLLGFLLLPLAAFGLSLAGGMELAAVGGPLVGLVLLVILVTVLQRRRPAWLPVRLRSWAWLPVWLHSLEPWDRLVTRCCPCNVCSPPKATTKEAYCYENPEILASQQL

[7] = target: T1, human NaPi2b on NaPi2b-positive cell …; experiment: flow cytometry on NaPi2b-positive HCC-78 cells, Alexa-dye-labeled anti-human IgG H+L secondary antibody, MFI ratio normalized to the non-specific binding control
[8] = target: T1, human NaPi2b on NaPi2b-positive cell …; experiment: flow cytometry on NaPi2b-positive OVCAR-3 cells, Alexa-dye-labeled anti-human IgG H+L secondary antibody, MFI ratio normalized to the non-specific binding control
FcγRIIIa (CD16) (V158) = target: T6, FcγRIIIa (CD16) (V158) (Homo sapiens, UniProt P08637); experiment: Lumit FcγRIIIa (V158) Binding Immunoassay (Promega), left panel FcγRIIIa (CD16) (V158), competition with Tracer-LgBiT for FcγR-SmBiT, falling luminescence means binding, n=1
T6 construct: m21 joins both polymorphic variants; also called V158 variant of m21
T6 sequence (P08637 17-208 F176V limits assumed): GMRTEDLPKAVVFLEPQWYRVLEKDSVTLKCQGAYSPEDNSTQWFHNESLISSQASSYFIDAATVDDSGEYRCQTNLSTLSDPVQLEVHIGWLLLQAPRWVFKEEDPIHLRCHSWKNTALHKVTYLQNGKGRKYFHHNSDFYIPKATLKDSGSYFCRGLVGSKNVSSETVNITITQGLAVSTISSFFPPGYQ

Kd [1]: 0.42 µg/mL
Kd [2]: 0.44 µg/mL
Kd [3]: 0.0106 µg/mL
binding result [4]: no binding (tested: 70 nM)
binding result [5]: binds
binding result [6]: no binding (tested: 200 nM)
EC50 (read off the curve) [7]: ~0.4 µg/mL
EC50 (read off the curve) [8]: ~0.5 µg/mL
binding result (FcγRIIIa (CD16) (V158)): binds
B1: AV25 mAb, LALA-silenced (AV25 HC-LALA) (antibody, human IgG1, kappa, L234A L235A)
heavy: not shown
light: DIQMTQSPSSLSASVGDRVTITCSASQDIGNFLNWYQQKPGKTVKVLIYYASSLYSGVPSRFSGSGSGTDYTLTISSLQPEDFATYYCQQYSKLPLTFGQGTKLELKRTVAAPSVFIFPPSDEQLKSGTASVVCLLNNFYPREAKVQWKVDNALQSGNSQESVTEQDSKDSTYSLSSTLTLSKADYEKHKVYACEVTHQGLSSPVTKSFNRGEC
notes: also called unmodified AV25 mAb
